In patent US5126322A, “Pancreatic secretory tryspin inhibitor and variants thereof produced by a recombinant host therefore and pharmaceutical use thereof” (Bayer Aktiengesellschaft, priority 1987, dated 1992):

What was measured:
Type in all cases: biochemical
α-Chymotrypsin (bovine) = biological target: T1, α-Chymotrypsin (bovine) (Bos taurus, UniProt P00766); assay: Enzyme inhibition assay, α-chymotrypsin, release of p-nitroaniline from Suc-Ala-Ala-Pro-Phe-pNA; conditions: 50 ng enzyme/assay
T1 construct: purchased E. Merck, Darmstadt
Procedure: Bovine α-chymotrypsin (CHT) was obtained from E. Merck, Darmstadt.
(§1) The substrates: MeOSuc-Ala-Ala-Pro-Val-pNA (HLE), Ac-Ala-Ala-Pro-Ala-pNA and Suc-Ala-Ala-Ala-pNA (PPE and Suc-Ala-Ala-Pro-Phe-pNA (CHT) were obtained from Bachem, Bubendorf/Switzerland.
(§2) Culture filtrates were treated as follows: 10 μl TWEEN 80 solution (0.5%) and 50 μl perchloric acid (70%) were added to 1 ml of culture filtrate. After 20 min, these samples were centrifuged, and the clear supernatants were neutralized by the addition of 225 μl saturated solution of tris base. Aliquots of these solutions were taken to determine inhibitory activities.
(§3) Generally, the samples were diluted with the appropriate buffer volume, and the enzyme was added. After the preincubation time, substrate was added (substrates are dissolved in DMSO in a concentration of 0.1M and diluted with buffer to give the concentration of the stock solution). The release of p-nitroaniline from the substrates was measured at 405 nm either continuously or after quenching the reaction by adding acetic acid. 100%- values were determined by running samples where inhibitors were omitted. Percentage inhibition was calculated using the formula: [formula] […]

[1] = biological target: T2, Granulocytic Elastase (human) (Homo sapiens, UniProt P08246); assay: Enzyme inhibition assay, leukocyte (granulocytic) elastase, release of p-nitroaniline from MeOSuc-Ala-Ala-Pro-Val-pNA; conditions: 120 ng enzyme/assay
T2 construct: purchased Elastin Products Company, Inc
T2 sequence (P08246 30-267): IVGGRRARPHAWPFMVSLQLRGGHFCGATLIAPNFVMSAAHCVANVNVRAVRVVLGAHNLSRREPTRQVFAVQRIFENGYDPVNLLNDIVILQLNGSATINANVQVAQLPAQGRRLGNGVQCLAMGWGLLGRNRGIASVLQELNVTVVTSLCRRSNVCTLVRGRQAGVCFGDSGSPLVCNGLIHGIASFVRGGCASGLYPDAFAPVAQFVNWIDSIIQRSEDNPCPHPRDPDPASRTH
Procedure: (§4) Human leukocyte elastase (HLE) and porcine pancreas elastase (PPE) were obtained from Elastin Products Company, Inc. P.O. Box 147, Pacific, Miss. 63069/USA.
as §1, §2, §3

[2] = biological target: T3, Pancreatic Elastase (porcine) (Sus scrofa, UniProt P00772); assay: Enzyme inhibition assay, pancreatic elastase, release of p-nitroaniline from Ac-Ala-Ala-Pro-Ala-pNA; conditions: 500 ng enzyme/assay
T3 construct: purchased Elastin Products Company, Inc
Procedure: as §4, §1, §2, §3

T3 sequence (P00772 27-266): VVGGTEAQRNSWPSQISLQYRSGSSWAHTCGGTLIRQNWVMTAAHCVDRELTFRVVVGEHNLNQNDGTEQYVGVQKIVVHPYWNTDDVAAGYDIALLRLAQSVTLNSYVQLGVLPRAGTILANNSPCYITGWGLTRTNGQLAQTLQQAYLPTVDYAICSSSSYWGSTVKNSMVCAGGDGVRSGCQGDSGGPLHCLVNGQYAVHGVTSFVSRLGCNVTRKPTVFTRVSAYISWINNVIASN

Leu^18 -Glu^19 -Arg^21 -Ala^32 -PSTI (DSLGREAKCYNELNGCTLEYRPVCGTDGNTYANECVLCFENRKRQTSILIQKSGPC; UniProt P00995 24-79, looked up, variant K18L I19E D21R P32A) [PSTI-4A, PSTI variant obtained from the minifusion protein by BrCN-cleavage]
amount of inhibitor giving 50% inhibition, α-Chymotrypsin (bovine) (α-Chymotrypsin (bovine)): 7 ng | amount of inhibitor giving 50% inhibition, Granulocytic Elastase (human) [1]: 17 ng | amount of inhibitor giving 50% inhibition, Pancreatic Elastase (porcine) [2]: 75 ng

Met^-1 -Leu^18 -Glu^19 -Arg^21 -Ala^32 -PSTI (DSLGREAKCYNELNGCTLEYRPVCGTDGNTYANECVLCFENRKRQTSILIQKSGPC; N-terminal Met; UniProt P00995 24-79, looked up, variant K18L I19E D21R P32A) [Met-PSTI-4A]
amount of inhibitor giving 50% inhibition, α-Chymotrypsin (bovine) (α-Chymotrypsin (bovine)): 8 ng | amount of inhibitor giving 50% inhibition, Granulocytic Elastase (human) [1]: 16 ng | amount of inhibitor giving 50% inhibition, Pancreatic Elastase (porcine) [2]: 73 ng

Leu^18 -Ala^32 -PSTI (DSLGREAKCYNELNGCTLIYDPVCGTDGNTYANECVLCFENRKRQTSILIQKSGPC; UniProt P00995 24-79, looked up, variant K18L P32A) [PSTI-1A, PSTI variant from cyanogen bromide cleavage of the PSTI-1A minifusion protein]
amount of inhibitor giving 50% inhibition, α-Chymotrypsin (bovine) (α-Chymotrypsin (bovine)): 100 ng | amount of inhibitor giving 50% inhibition, Granulocytic Elastase (human) [1]: 18 ng | amount of inhibitor giving 50% inhibition, Pancreatic Elastase (porcine) [2]: 1200 ng

Val^18 -Glu^19 -Arg^21 -PSTI (DSLGREAKCYNELNGCTVEYRPVCGTDGNTYPNECVLCFENRKRQTSILIQKSGPC; UniProt P00995 24-79, looked up, variant K18V I19E D21R) [PSTI-5P]
amount of inhibitor giving 50% inhibition, α-Chymotrypsin (bovine) (α-Chymotrypsin (bovine)): 100 ng | amount of inhibitor giving 50% inhibition, Granulocytic Elastase (human) [1]: 15 ng | amount of inhibitor giving 50% inhibition, Pancreatic Elastase (porcine) [2]: 70 ng

Asn^-13 -Ala^-12 -Glu^-11 -Thr^-10 -Ala^-9 -His^-8 -Lys^-7 -Ser^-6 -Asn^-5 -Glu^-4 -Val^-3 -Thr^-2 -Met^-1 -Leu^18 -Glu^19 -Arg^21 -Ala^32 -PSTI ({Asn-Ala-Glu-Thr-Ala-H2N}-KSNEVTMDSLGREAKCYNELNGCTLEYRPVCGTDGNTYANECVLCFENRKRQTSILIQKSGPC; ends and bridges not checked; UniProt P00995 24-79, looked up, variant K18L I19E D21R P32A) [PSTI-4A [Minifusion]]
amount of inhibitor giving 50% inhibition, α-Chymotrypsin (bovine) (α-Chymotrypsin (bovine)): 6 ng | amount of inhibitor giving 50% inhibition, Granulocytic Elastase (human) [1]: 15 ng | amount of inhibitor giving 50% inhibition, Pancreatic Elastase (porcine) [2]: 68 ng

Tyr^18 -Glu^19 -Arg^21 -PSTI (DSLGREAKCYNELNGCTYEYRPVCGTDGNTYPNECVLCFENRKRQTSILIQKSGPC; UniProt P00995 24-79, looked up, variant K18Y I19E D21R) [PSTI-3P]
amount of inhibitor giving 50% inhibition, α-Chymotrypsin (bovine) (α-Chymotrypsin (bovine)): 7 ng | amount of inhibitor giving 50% inhibition, Granulocytic Elastase (human) [1]: > 5000 ng
